PMC11154705, “Spatio-temporal control of asymmetric septum positioning during sporulation in Bacillus subtilis” (The Journal of Biological Chemistry, 2024)
Values joined by “and” are separate entries in the source; they are usually repeats but may differ in a detail not shown here. Equal entries are not always repeated.

Molecular target: the molecule itself
Experiment: SEC; Superdex S200 16/60 in 50 mM Tris-HCl pH 8.5, 300 mM NaCl; proteins applied separately or mixed (350 ul RefZ 28.8 uM premixed with 350 ul cyt-SpoIIE 15.5 uM, dialyzed overnight, 500 ul loaded); fractions analysed by anti-His Western blot

B1: His-tagged cytosolic part of SpoIIE (375-827 aa) (domain or fragment, B. subtilis, UniProt P37475 375-827, looked up)
chain: YQASDEQTDDSEVDLFLSKITEHSCQTCYKKNRCWVQNFDKTYDLMKQVMLETEEKEYASNRRLKKEFQQYCSKSKQVEELIEDELAHHHAHLTLKKKVQDSRRLVAEQLLGVSEVMADFSREIKREREQHFLQEEQIIEALQHFGIEIQHVEIYSLEQGNIDIEMTIPFSGHGESEKIIAPMLSDILEEQILVKAEQHSPHPNGYSHVAFGSTKSYRVSTGAAHAAKGGGLVSGDSYSMMELGARKYAAAISDGMGNGARAHFESNETIKLLEKILESGIDEKIAIKTINSILSLRTTDEIYSTLDLSIIDLQDASCKFLKVGSTPSFIKRGDQVMKVQASNLPIGIINEFDVEVVSEQLKAGDLLIMMSDGIFEGPKHVENHDLWMKRKMKGLKTNDPQEIADLLMEEVIRTRSGQIEDDMTVVVVRIDHNTPKWASIPVPAIFQNKQEIS
notes: SpoIIE, Bacillus subtilis, cytosolic part, residues 375-827; Elutes as dimers, tetramers and higher oligomers; also called cyt-SpoIIE; not shown: His-tag, N-terminal, kept
stoichiometry N: 2 and 4
